According to paper PMC12342889, “Deciphering the RNA recognition by Musashi-1 to design protein and RNA variants for in vitro and in vivo applications”:

What was measured:
MSI-1 RRM1 = MSI-1 RRM1 (Homo sapiens, UniProt O43347 1-103); test: SPR; 1:1 model; NMR: 50 mM Tris-HCl, 140 mM NaCl, 1 mM EDTA, 1 mM protease inhibitors, pH 7.2 (RRM1: pH 7.5), 298 K; fluorescence quenching: 50 mM Tris pH 7.2, 140 mM NaCl, 1 mM EDTA; SPR: biotinylated RNA immobilised, buffer not in the material; details: protein: recombinant, label: biotin for SPR
MSI-1 RRM2 = MSI-1 RRM2 (Homo sapiens, UniProt O43347 104-200); test: as above; details: protein: recombinant, label: biotin for SPR
MSI-1 RRM1-2 DM [1] = molecular target: T1, MSI-1 RRM1-2 DM (Homo sapiens, UniProt O43347 1-200, E180N;K182M); test: SPR; KD1 monovalent; 1:1 model at low RNA density; NMR: 50 mM Tris-HCl, 140 mM NaCl, 1 mM EDTA, 1 mM protease inhibitors, pH 7.2 (RRM1: pH 7.5), 298 K; fluorescence quenching: 50 mM Tris pH 7.2, 140 mM NaCl, 1 mM EDTA; SPR: biotinylated RNA immobilised, buffer not in the material; details: protein: recombinant; label: biotin for SPR; single strand
MSI-1 RRM2-M1 = MSI-1 RRM2-M1 (Homo sapiens, UniProt O43347 104-200, E180N); test: SPR; NMR: 50 mM Tris-HCl, 140 mM NaCl, 1 mM EDTA, 1 mM protease inhibitors, pH 7.2 (RRM1: pH 7.5), 298 K; fluorescence quenching: 50 mM Tris pH 7.2, 140 mM NaCl, 1 mM EDTA; SPR: biotinylated RNA immobilised, buffer not in the material; details: protein: recombinant, label: biotin for SPR
MSI-1 RRM2-M2 = MSI-1 RRM2-M2 (Homo sapiens, UniProt O43347 104-200, K182M); test: as above; details: protein: recombinant, label: biotin for SPR
MSI-1 RRM1-2 [2] = molecular target: T2, MSI-1 RRM1-2 (Homo sapiens, UniProt O43347 1-200); test: SPR; KD1 monovalent; bivalent part negligible; NMR: 50 mM Tris-HCl, 140 mM NaCl, 1 mM EDTA, 1 mM protease inhibitors, pH 7.2 (RRM1: pH 7.5), 298 K; fluorescence quenching: 50 mM Tris pH 7.2, 140 mM NaCl, 1 mM EDTA; SPR: biotinylated RNA immobilised, buffer not in the material; details: protein: recombinant; label: biotin for SPR; single strand
MSI-1 RRM1-2 [3] = molecular target: T2, MSI-1 RRM1-2; test: SPR; KD1 monovalent, 1:2 model; NMR: 50 mM Tris-HCl, 140 mM NaCl, 1 mM EDTA, 1 mM protease inhibitors, pH 7.2 (RRM1: pH 7.5), 298 K; fluorescence quenching: 50 mM Tris pH 7.2, 140 mM NaCl, 1 mM EDTA; SPR: biotinylated RNA immobilised, buffer not in the material; details: protein: recombinant, label: biotin for SPR, unlabelled for NMR
MSI-1 RRM1-2 DM [4] = molecular target: T1, MSI-1 RRM1-2 DM; test: as above; details: protein: recombinant; label: biotin for SPR; unlabelled for NMR; single strand
MSI-1 RRM1-2 DM [5] = molecular target: T1, MSI-1 RRM1-2 DM; test: SPR; KD1 monovalent; NMR: 50 mM Tris-HCl, 140 mM NaCl, 1 mM EDTA, 1 mM protease inhibitors, pH 7.2 (RRM1: pH 7.5), 298 K; fluorescence quenching: 50 mM Tris pH 7.2, 140 mM NaCl, 1 mM EDTA; SPR: biotinylated RNA immobilised, buffer not in the material; details: protein: recombinant; label: biotin for SPR; unlabelled for NMR; single strand
MSI-1 RRM1-2 DM [6] = molecular target: T1, MSI-1 RRM1-2 DM; test: NMR; more than one species; NMR: 50 mM Tris-HCl, 140 mM NaCl, 1 mM EDTA, 1 mM protease inhibitors, pH 7.2 (RRM1: pH 7.5), 298 K; fluorescence quenching: 50 mM Tris pH 7.2, 140 mM NaCl, 1 mM EDTA; SPR: biotinylated RNA immobilised, buffer not in the material; details: protein: recombinant; label: biotin for SPR; unlabelled for NMR; hairpin
[7] = unlabelled for NMR, single strand

T2 sequence (O43347 1-200): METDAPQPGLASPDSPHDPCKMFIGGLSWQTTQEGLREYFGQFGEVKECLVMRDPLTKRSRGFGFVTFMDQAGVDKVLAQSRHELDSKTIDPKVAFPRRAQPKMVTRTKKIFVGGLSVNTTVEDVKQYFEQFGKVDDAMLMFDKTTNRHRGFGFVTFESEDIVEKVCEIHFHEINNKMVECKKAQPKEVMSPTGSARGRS
Chain of MSI-1 RRM2-M2 (O43347 104-200 K182M): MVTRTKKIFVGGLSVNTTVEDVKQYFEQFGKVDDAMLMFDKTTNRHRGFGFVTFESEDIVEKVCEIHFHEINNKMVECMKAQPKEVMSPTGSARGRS
Chain of MSI-1 RRM1 (O43347 1-103): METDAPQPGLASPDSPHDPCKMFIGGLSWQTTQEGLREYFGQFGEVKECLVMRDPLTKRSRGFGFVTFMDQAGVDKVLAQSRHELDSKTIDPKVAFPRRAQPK
T1 sequence (O43347 1-200 E180N/K182M): as the sequence (O43347 1-200) above, with E180N, K182M counted along it
Chain of MSI-1 RRM2 (O43347 104-200): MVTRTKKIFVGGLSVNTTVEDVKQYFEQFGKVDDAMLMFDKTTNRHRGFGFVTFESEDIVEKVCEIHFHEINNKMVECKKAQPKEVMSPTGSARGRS
Chain of MSI-1 RRM2-M1 (O43347 104-200 E180N): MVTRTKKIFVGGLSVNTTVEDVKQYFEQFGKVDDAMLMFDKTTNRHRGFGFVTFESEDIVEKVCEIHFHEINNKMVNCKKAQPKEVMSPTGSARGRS

## UUGUCAGUUACCCCUU (ssRNA) [oligo-L2.1]
MSI-1 RRM1; single strand
  Kd: 151 ± 16.9 nM
MSI-1 RRM2; single strand
  Kd: 123 ± 7.8 nM
MSI-1 RRM1-2 DM [1]
  Kd: 67 ± 20.4 nM
MSI-1 RRM2-M1; single strand
  Kd: 58.6 ± 3.6 nM
MSI-1 RRM2-M2; single strand
  Kd: 62.9 ± 11 nM
MSI-1 RRM1-2 [2]
  Kd: 218 ± 27.5 nM

## UUGUUAGUUACCCCUU (ssRNA) [oligo-L2]
MSI-1 RRM1-2 [3]; single strand
  Kd: 57.6 ± 12.9 nM
MSI-1 RRM1-2 DM [4]
  Kd: 104 ± 9.5 nM
MSI-1 RRM1; [7]
  Kd: 47.1 ± 0.7 nM
MSI-1 RRM2; [7]
  Kd: 25 ± 3.6 nM
MSI-1 RRM2-M1; [7]
  Kd: 35.5 ± 3.6 nM
MSI-1 RRM2-M2; [7]
  Kd: 108 ± 10.2 nM

## UUGAUAGUUAGCAGGU (ssRNA) [oligo-L3.2]
MSI-1 RRM1-2 [3]; single strand
  Kd: 144 ± 15 nM
MSI-1 RRM1; [7]
  Kd: 85.6 ± 7.4 nM
MSI-1 RRM2; [7]
  Kd: 44.5 ± 4.5 nM
MSI-1 RRM1-2 DM [5]
  Kd: 98.5 ± 6.9 nM
MSI-1 RRM2-M1; [7]
  Kd: 49.8 ± 11.4 nM
MSI-1 RRM2-M2; [7]
  Kd: 88.5 ± 1.25 nM

## CACUCUGUAGUAUGUAGGGUUUAUUU (structured_RNA) [oligo-HP5]
MSI-1 RRM1-2 [3]; hairpin
  Kd: 48.6 ± 5.6 nM
MSI-1 RRM1; unlabelled for NMR, hairpin
  Kd: 32.8 ± 5.2 nM
MSI-1 RRM2; unlabelled for NMR, hairpin
  Kd: 26.4 ± 1.6 nM
MSI-1 RRM2-M1; unlabelled for NMR, hairpin
  Kd: 14.5 ± 0.8 nM
MSI-1 RRM2-M2; unlabelled for NMR, hairpin
  Kd: 14.5 ± 3 nM

## AAGCGUUAGUUAUUUAGUCGCUU (structured_RNA) [oligo-HP4]
MSI-1 RRM1-2 DM [6]
  binding result: binds
MSI-1 RRM1-2 [3]; hairpin
  Kd: 76.8 ± 5.9 nM
MSI-1 RRM1; unlabelled for NMR, hairpin
  Kd: 21.9 ± 2.7 nM
MSI-1 RRM2; unlabelled for NMR, hairpin
  Kd: 37.2 ± 2.4 nM
MSI-1 RRM2-M1; unlabelled for NMR, hairpin
  Kd: 14.1 ± 2.5 nM
MSI-1 RRM2-M2; unlabelled for NMR, hairpin
  Kd: 39.1 ± 15 nM

## UUGUUAGUUAUUAGUU (ssRNA) [oligo-L3]
MSI-1 RRM1-2 [3]; single strand
  Kd: 248 ± 8.5 nM
MSI-1 RRM1; [7]
  Kd: 153 ± 8.6 nM
MSI-1 RRM2; [7]
  Kd: 81.6 ± 2 nM
MSI-1 RRM1-2 DM [5]
  Kd: 98.5 ± 4.8 nM
MSI-1 RRM2-M1; [7]
  Kd: 74.8 ± 9.3 nM
MSI-1 RRM2-M2; [7]
  Kd: 64.5 ± 4.1 nM
